According to a protein production outcome set (Wang et al. 2014):

Experiment: label from the status in PepcDB records

Sequence | protein production
MSLFGRLLSLLLAFVPLSICAAVNHLPVVGEDYVEIPDGRPFAPLAGKIEVVEIFGYTCPHCAHFDSKLQAWGARQAKDVRFTLVPAVFGGVWDPFARAYLAADVLGVAKRSHAAMFEAIHEKGSVPIQNVGPDELAVFYAGYGVQPDRFVATFNGPEVEKRFQAARAYALKVRPVGTPAIVVDGRYMVTGHDFDDTLRITDYLVSRERAASHGR | failed
MQVQELVGIVPWNFIATICNLFIQVYLIKRFLFKPVNEMLEKRRAKADAEIQDAVKAKEEAEVMKAEYEKNMQEAKEKANDIVLTAQKTAAVQSEEMLKEASSQVTAMKEKAEKDIAQERRKAVNEIKGEIGGMAVEIAGKVIEREINEEDHTKLINDFIENVGEAS | not failed
INDKLLVQTIKKALFGLRYQRAKKDIQEKDTMISVVADNSPAGICLFGDNGIIYANKALETITGYSKSELIGGSLLDIIQSDSKRLSERINLSLDSACNLEKYSEIRIKTKTGKIRYIDLIANSVEFKEGYVCIANMIDV | failed
MRMIDIIEKKRDGHTLTTEEINFFIGGYVKGDIPDYQASSLAMAIYFQDMNDDERAALTMAMVNSGDMIDLSDIKGVKVDKHSTGGVGDTTTLVLAPLVAAVDVPVAKMSGRGLGHTGGTIDKLEAIDGFHVEIDEATFVKLVNENKVAVVGQSGNLTPADKKLYALRDVTGTVNSIPLIASSIMSKKIAAGADAIVLDVKTGSGAFMKTLEDAEALAHAMVRIGNNVGRNTMAIISDMNQPLGRAIGNALELQEAIDTLKGQGPKDLTELVLTLGSQMVVLANKAETLEEARALLIEAINSGAALEKFKTFIKNQGGDETVIDHPERLPQAQYQIEYKAKKSGYVTELVSNDIGVASMMLGAGRLTKEDDIDLAVGIVLNKKIGDKVEEGESLLTIHSNRQDVDDVVKKLDSSITIADHVVSPTLIHKIITE | not failed
MSLTEYVHGYSEREALRLSEQAETLEKLLHHDTVYPPGAKVLEAGCGIGAQTVILAKNNPDAEITSIDISPESLEKARENTEKNGIKNVKFLQANIFSLPFEDSSFDHIFVCFVLEHLQSPEEALKSLKKVLKPGGTITVIEGDHGSCYFHPEGKKAIEAWNCLIRVQAYMKGNSLVGRQIYPLLQESGFEKIRVEPRMVYIDSSKPELVDGFILKTIIPMVEGVKEQSLKMQIIKEEEWEKGIEELHKTAEHGGTFCYTFFKGWGTKEGHHHHHH | not failed
MQKVVLATGNVGKVRELASLLSDFGLDIVAQTDLGVDSAEETGLTFIENAILKARHAAKVTALPAIADDSGLAVDVLGGAPGIYSARYSGEDATDQKNLQKLLETMKDVPDDQRQARFHCVLVYLRHAEDPTPLVCHGSWPGVITREPAGTGGFGYDPIFFVPSEGKTAAELTREEKSAISHRGQALKLLLDALRNG | not failed
MELNNTIATPLYKQLEKKLQQEIDSGKRPAGSRLPTENELSKAYNVSRVTVRKALAELSESGYLERKSGKGTFVAEKKLERGITNGVLGFSEMCKMMNAIPGAKIIKIALEEPSEKDIQKMSLNKDEKVLVLERVRYANGKPVLLELNKFPESFSFLFEENLTDASLYDILEQHNIILDHSRKTLDIVFADTKEAKTLGISRGYPLLRINSIIHNADNTITNLCQQLCIGDKFTFII | failed
LPLCDSLIIWLQTFKTASPCQDVKQLTNGVTMAQVLHQIDVAWFSESWLSRIKDDVGDNWRIKASNLKKVLHGITSYYHEFLGQQISEELIPDLNQITECADPVELGRLLQLILGCAVNCEKKQEHIKNIMTLEESVQHVVMTAIQELMSK | not failed
SKETIMNQKLTKRQAEVHTGRKGTAHRKKVVHTTAEDKKFQFSLKKLGVNNIPGIEEVNMFTHQGTVIHFNNPEVQASLAANTFTMTGHAETKQLTEMLLSIDHKPVLQMV | not failed
MDTSNATSVVNVSASSSTSTIYDLGNMSKDEVVKLFEELGVFQAAILMFSYMYQAQSNLSIAKFADMNEASKASTTAQKMANLVDAKIADVQSSTDKNAKAKLPQDVIDYINDPRNDISVTGIRDLSGDLSAGDLQTVKAAISAKANNLTTVVNNSQLEIQQMSNTLNLLTSARSDVQSLQYRTISAISLGK | failed
MKQPATPNAAEETKSEQKQKSKKFPTPTELISHYQKRGLEPAEASIKVIEDLQNALVRVVSSSRNASSKDKLVTDARKIDAINGRLAVVDAKLETKPGYVETFALGLASGATLNGISAVWPHVTRGIGQIWSAVRIGTDPSSTS | failed
MDTYMIDAELEHYLGERLSSSSRQALCRLHVRACARFHGAELEEYRRRLRAHARAYARLGRMLQSPFRHMETALFLSSFTLFVAGIIMVVNGDLSALVACGTAAGLVGMIECARKLAGHWHRYGVMEAVYRELEEQLANG | failed
MRGRIMSTFTTISSDKLARLIGTANAPVLIDVRTEEDFAADRRLIPGSIRLSHENVPDWGAAFAGRSVIVSCLRGAKLAQGTAAWLRQLGVQAETLDGGFEGWKEAKLPLLDTRKLPPRDAKGRTVWVTRARPKVDRIACPWLIRRFVDPNAVFLYVAPSEVVAVGERFNAAPFDIENVFWSHRGELCTFDVMIEEFGIATPALLRLATLVRGADTARPDLAPEAPGLLAASLGLSRMYDDDLEQLEAGLLLYDAFYRWCRDATAETHNWPTNKVKA | failed
MNTGMGLIWIAGASGLLAFLTSLLYFFRQDRKFLALSEKLELIAGVGLVFAIFLLAFYLLGVDTQYSYVFQHSSTDLAWHYRFSALWAGQEGSFLIWTGFIFVMLAITRFTGTGKVLRETEIFSIMRSVSLFVASVFLLLLALKNPFSMYYYTGTGVPDVTNWNLFAEPFVVSYGQGMNPLLRNPWMAIHPPLLFLGYAAFTLPFSAAIGGLVLKDSRWSELATGWMRVSWLFLTLGIGFGAFWAYEVLGWGAWYWTWDPVETSSLIPWLTATAYLHAKLRARQGEYGFLLPMLALVSFILVIFSTFVTRSGLWVSVHSWQDFTMEGMIIALFLVVLIGSSAVLLVRKYFSEE | failed
LANRIENVVSQERTRKKFESLVSDSPDGIVHLTTNGTILSVNPSMAGRLGADPDTLVGQQLSAVMDSEAANQRLEAGKSAVENGTATRSEDAVGGRHYHNQYIPVDSHRKSDTFQLVSRDIT | not failed
MKSFVATVLVALLFIVALVFGARNEQVVTISYFVAQGEYRLPVVLAVVFFTGFMLSWLVASYYIVRLKLALAATRKKLTLQTAKKPQGVDA | failed
TIDRDIQWAAQNAITEQVEKSGADRGYVMVQDTRTGEILAMANSPGFDPNDLSKASSAALGNAALQDAYEPGSTAKVMSMAAVLEENVATPETHVVVPNRLHRGDRLFQDDIDHPTWNLTLNGVLAKSSNIGTILAAGQLGKTQKQANEVLYSYMRKFGIGLPTGLGFPGETSGILAPAAKWSTSQQYTIPFGQGVSINAMQAASVYSTIANGGVRVEPTLVRGTKGPDGRFTPAPRPKKTRVVSEKTAKTLAQMLESVVDDEEGTGAKARIPGYRVAGKTGTANRVDPATGKYHGYTSSFAGFAPADNPRITVYCAIQNATQGSYFGGQICGPIYKQVMEFALKTLQVPPTGAGAAHLPVTFTP | failed
PGSPPGEGAPLAADVYVGNLPRDARVSDLKRALRELGSVPLRLTWQGPRRRAFLHYPDSAAAQQAVSCLQGLRLGTDTLRVALARQQRDK | not failed
MERSAIQIPAGRIDDAVAKVDGLVGELMQNTGIPGMAVAIVHGGKTLYAKGFGVRDVGKGGGPDNKVDADTVFQLASVSKSVGATVVAHAVTDNVVTWDTPVVSKLPWFALRDPYVTGQVTIADLYSHRSGLPDHAGDLLEDLGYDRRQVLQRLKYLPLAPFRISYAYTNFGVTAAAEAVAAAAGQSWEDLSDEVLYRPLGMGSTSSRFTDFLARPNHAVNHVKVADRWEARYQRDPDAQSPAGGVSSSLNDMTHWLAMVLADGVYNGRRITSPEALLLVYTPQVISRHPVSPRARASFYGYGFNVGVTSSGRTEYSHSGAFGLGAAANFVVLPSEDLAIIALTNAGPIGVPETLTAEFMDLVQYGQVREDWAALYKKAFAPLNELAGSLVGKQSPANPAPSRPLNDYVGVYANDYWGPATVTYHDGQLRLSLGPKNQTFDLTHWDGDTFTFTLSTENALPGSISKATFAGDTLNLEYYDADKLGTFTRLEHHHHHH | failed
MAVQENLLLGAKASKNATLTLVFLSILKGVVGFYSGSASLIADAIHTSLDIFTSLAVWIGLKLSMRGSEEKFPYGYYKADNLVSLFVSIIILFSGVELVREALLNIASPVEIKLQGIALGTAVFSVIAMYALSQYKFKVGKQIDSQALIADALHSYTDVFSSLIVAITIIGSLLGVLWLDSAGVLVISLMIFKLGIGMAKDSILTLMDAWLDKDSIERIRQNVGSIQGVKTVDEIRLRKSGLVVFGEIEIEIEGDASLKRVEMLFEEIEKTVKNEVKNLEHLVVNVKPEKISVMKIAVPVLMQEGLHSKVSRHFSKAPYFIFIELENNDIISWDVSENPAAGLEKKKGLKAAEFLKDQGVNVLIAGEIGEAPFHTLRDNFVKLLQMPEEIEDVEQVVKKVSELNTLTAPTE | failed
MSDPSAKPLQEHILIILDDAGRREVLLTETFYTIGRSPRADIRIKSQFVSRIHAVLVRKSSDDVQAAYRIIDGDEDGQSSVNGLMINGKKVQEHIIQTGDEIVMGPQVSVRYEYRRRDQFGTMPGNEQFDITLIDPGMIDDEEEIPTSVSSSPPEME | failed
MRTLGIIGFGGFGQFMVKHLQPYISVTVHDLTDLSHIAAEHKVEWGTLQETASKDIVILAVPVQFLESLLLEIKDYLKAEALIVDVSSVKVKPIELMLKHLPLTVDILGTHPLFGPQSGKNGIKGLNMVVCPVRSKKMRAITHFLRNVIQLNVLERTPETHDKQMAYVQALTHFIGRSINEMDIPDVEQKTPAYQYLLDIKRNLGGDSMDLFLTIELENPYAKKVREEFMGALKSLNDRLEHIKR | failed
MQVRAVFFARLRREVGLEELTLDVPDGADVRAVAEHLEQERGVSLRGCMVAVNETYASPEHLLREGDEVAFLPPVAGGAPEDEADADTHCRVTADPLSLSEADAFLVKPEYGAQAYFMGTVRSPNQGQVVEYIDYEAFAPMAEKVMREAAALARERHGELRVWIEHRTGRLTPAVASIVIGVASPHRRPALEACDFLIEHLKIELPIWKHEADGRGEHWVKGTTGHDTL | failed
MPAGCESNPRLVGHPFMTTILAIAVFGAVGCVARYLLAGGVYALAGRAFPWGTLAVNVIGAFLIGLIMEAALRTTLMSQELRLGLTIGFLGGFTTFSTFSYETFKLLEDGEFFSASLNVLASVALCLVGTWAGIMAARQL | failed
MLISALIVMVITYCLIISRSITKIPPWASMFFGGILMVILGIISPEEALQSINLDVILFLITLFTFASALEVSGFLKFLAYKIIEKFKEPRKVLFYILLYSGLLSNLVTNDGVSASWTPVILELSRMIGVSEVPFLYALAVGVTIGSVIMPTGNPQNLLIALESGIKNPFITFTIYLTLPSIISLIIAYFILFRLFRKSLSLPSGINIKKEEEEKVDFDRRLGYLTLTLLVVTIILFFSLSFFKIDILLGSLVTSSILLLLTEKRRDIVRRMDWPTILFFIGLFIFTDGVLKSGIIQYLSNFLPPPDSVASIMIVSILLSQVLSNVPLVAIYIPIMISHSGITVVDWLALAAGSTIAGNFTILGAASNVIISEASESRGGKGFNFVEFMKYTIPILIPNAIIIYLFLVLFR | failed
MLWRKRLFAHLYPGLSARHEALVAERKRALFREALRRARPERVLEIGPGPGTNLAHLPEGVAYLALEPNPFFHPRLREEARKRGLALTLLPGRAEAIPLPGGSVDLVVATLVLCSVADPEKAIEEVHRVLRPGGAYLFLEHVAAPKGAPLRLLQEAATPFFVFFGDGCHPNRKTLAQIQARFPRVEAEAFSLPLPVVAPHVAGLAFKELEHHHHHH | failed
MLAVFTKSVAGVKLFGMMYPVLERSENLPTDDSIDAIKEIAKALQSVLFKLHINGYSSLLHPLGVNNVDFILKFYVVKDGENDSLRVINVYHKLCGEAEDSWLEIVNNFRGEFSFISMMQRIEASLLLINAVKCYVVSDTLGNLFFRNDYNFGTGGSVCYVHIFGGHYLASGKGLRKLQLPLMETKMEPLIPDDIV | failed
